Measured values: paper PMC10138814

Experiments:
[1] = target: mCherry-LaM1 complex (llama); test: ITC; 100 uM nanobody in the syringe into 10 uM mCherry (or 8.9 uM mCherry-LaM1 or mCherry-LaM3 complex) in the cell; 25 °C; one set of sites
[2] = target: mCherry-LaM3 complex (llama); test: as above

Kd [1]: 54 nM
dH [1]: -10.3 kcal/mol
stoichiometry N [1]: 0.854 sites
Kd [2]: 236 nM
dH [2]: -9.99 kcal/mol
stoichiometry N [2]: 0.799 sites
B1: LaM8 (VHH)
VHH: QVQLVESGGGLVQAGGSLRLSCAVSGRPFSEYNLGWFRQAPGKEREFVARIRSSGTTVYTDSVKGRFSASRDNAKNMGYLQLNSLEPEDTAVYYCAMSRVDTDSPAFYDYWGQGTQVTVST
